Reference: the supplement of paper PMC7877785
± gives the uncertainty stated by the source.

Experiment: self-splicing fitness, log relative to wild type (ln ratio); higher = more splicing; Tetrahymena group I intron in knt gene, E. coli kanamycin selection, DiMSum; sequences stand for … in CUCUCU…GGAGGGAAAAGUUAUCAGGCAUGCACCUGGUAGCUAGUCUUUAAACCAAUAGAUUGCAUCGGUUUAAAAGGCAAGACCGUCAAAUUGCGGGAAAGGGGUCAACAGCCGUUCAGUACCAAGUCUCAGGGGAAACUUUGAGAUGGCCUUGCAAAGGGUAUGGUAAUAAGCUGACGGACAUGGUCCUAACCACGCAGCCAAGUCCUAAGUCAACAGAUCUUCUGUUGAUAUGGAUGCAGUUCACAGACUAAAUGUCGGUCGGGGAAGAUGUAUUCUUCUCAUAAGAUAUAGUCGGACCUCUCCUUAAUGGGAGCUAGCGGAUGAAGUGAUGCAACACUGGAGCCGCUGGGAACUAAUUUGUAUGCGAAAGUAUAUUGAUUAGUUUUGGAGUACUCGUGGUCG
How it was run: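 Fitness was computed with DiMSum as the error-weighted combination of replicate fold changes, kanamycin versus none, each normalised to wild type. The library randomised all eight intron nucleotides of the P1ex region, with the intron placed in the knt kanamycin-resistance gene on pET-22b(+) in E. coli BL21(DE3). Six replicate transformations were grown overnight at 37°C or 30°C on LB agar with or without 25 μg/mL kanamycin, plus 100 μg/mL carbenicillin, 50 μM IPTG and 0.2% rhamnose. Pooled colonies were amplicon-sequenced on an Illumina HiSeq 2500.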

Row | Sequence | self-splicing fitness (ln) (37 °C) | self-splicing fitness (ln) (30 °C)
1 | UAUUAGCAAUAUUACGCUAU | -2.14 ± 0.29 | 
2 | UCAGAGCAAUAUUACGGUGA | -0.193 ± 0.1 | -0.792 ± 0.084
3 | CAUCAGCAAUAUUACGCGCA | -0.493 ± 0.12 | -1.21 ± 0.1
4 | AUAUAGCAAUAUUACGCCCA | -0.688 ± 0.3 | -1.31 ± 0.3
5 | GAUCAGCAAUAUUACGUCUA | 0.145 ± 0.086 | -0.327 ± 0.071
6 | UACUAGCAAUAUUACGUGAU | -1.17 ± 0.12 | -3.07 ± 0.11
7 | UUGAAGCAAUAUUACGAACA | -0.488 ± 0.23 | 0.602 ± 0.15
8 | CAACAGCAAUAUUACGAGUG | -0.292 ± 0.071 | -1.59 ± 0.051
9 | CAUAAGCAAUAUUACGUUGU | -2.98 ± 0.18 | -3.55 ± 0.15
10 | UAAUAGCAAUAUUACGCUUC | -1.72 ± 0.29 | 
11 | UCCUAGCAAUAUUACGUGGA | -2.74 ± 0.23 | -2.37 ± 0.16
12 | UUGCAGCAAUAUUACGCCCU |  | 0.32 ± 0.46
13 | CGCCAGCAAUAUUACGUCCA | -1.45 ± 0.39 | 
14 | UUACAGCAAUAUUACGCACC | -0.981 ± 0.23 | -2.69 ± 0.21
15 | UACGAGCAAUAUUACGACUC | -2.31 ± 0.36 | -2.51 ± 0.21
16 | UAGUAGCAAUAUUACGCCAA | -2.02 ± 0.24 | -3.28 ± 0.29
17 | ACAUAGCAAUAUUACGGUUA | -0.751 ± 0.095 | -1.05 ± 0.098
18 | AUCCAGCAAUAUUACGCAGA | -0.448 ± 0.099 | -1.38 ± 0.11
19 | GUUAAGCAAUAUUACGAUCC | 0.0862 ± 0.16 | -1.62 ± 0.13
20 | CCAAAGCAAUAUUACGACCU | -3.23 ± 0.38 | -3.31 ± 0.21
21 | CACCAGCAAUAUUACGCAAA | -2.99 ± 0.2 | -4.2 ± 0.27
22 | UUUAAGCAAUAUUACGAACU | -1.98 ± 0.23 | -2.51 ± 0.23

Row | Sequence | self-splicing fitness (ln) (37 °C) | self-splicing fitness (ln) (30 °C)
23 | UCUGAGCAAUAUUACGUGAU | -1.42 ± 0.44 | -3.42 ± 0.23
24 | GGAAAGCAAUAUUACGAUAG | -1.16 ± 0.2 | -3.1 ± 0.34
25 | CUAUAGCAAUAUUACGUGCA | -2.37 ± 0.19 | -3.24 ± 0.18
26 | UUCUAGCAAUAUUACGUCCA | -0.134 ± 0.17 | -2.13 ± 0.19
27 | GGAAAGCAAUAUUACGUGGG | -1.47 ± 0.11 | -3.72 ± 0.19
28 | AAAUAGCAAUAUUACGUACC | -1.39 ± 0.24 | -0.0895 ± 0.18
29 | GUAUAGCAAUAUUACGGGAG | -1.77 ± 0.35 | 
30 | UCCGAGCAAUAUUACGCAUC |  | -3.11 ± 0.41
31 | AUUGAGCAAUAUUACGCGAU | -2.33 ± 0.34 | -3.68 ± 0.32
32 | CACAAGCAAUAUUACGAUCA | -1.55 ± 0.12 | -2.43 ± 0.11
33 | ACUAAGCAAUAUUACGUAGA | -1.28 ± 0.1 | -3.25 ± 0.12
34 | AGUAAGCAAUAUUACGCGCC | 0.671 ± 0.29 | -0.457 ± 0.22
35 | UCACAGCAAUAUUACGCUAG | -1.49 ± 0.12 | -2.91 ± 0.13
36 | UAAAAGCAAUAUUACGUGAC | -3.43 ± 0.46 | 
37 | AGAUAGCAAUAUUACGCGGU | -2.28 ± 0.15 | -2.93 ± 0.17
38 | UCUCAGCAAUAUUACGAUAU | -1.75 ± 0.18 | -2.12 ± 0.14
39 | CUUAAGCAAUAUUACGCGGU | -2.35 ± 0.22 | -2.59 ± 0.14
40 | GCCUAGCAAUAUUACGGCUG | -3.29 ± 0.42 | -1.88 ± 0.15
41 | GAAUAGCAAUAUUACGCCCC | -0.245 ± 0.42 | -0.0149 ± 0.39
42 | CAGUAGCAAUAUUACGACCA | -0.375 ± 0.27 | -0.792 ± 0.28
43 | UGCGAGCAAUAUUACGUCCU | -0.627 ± 0.15 | -2.35 ± 0.14
44 | GGUGAGCAAUAUUACGGUCG | -0.612 ± 0.1 | -1.29 ± 0.077
